Source: the supplement of paper PMC5998384

What was measured:
HeLa Kyoto [1] = assay: melting temperature (median over replicates), in situ; higher = more thermally stable
HeLa Kyoto [2] = assay: solubility in G1/S (NP-40 vs SDS abundance) (log2 ratio); higher = more soluble; conditions: cell cycle stage: G1/S
HeLa Kyoto [3] = assay: thermal stability score vs G1/S (z-score of summed log2 fold changes over temperatures); higher = more thermally stable than in G1/S
HeLa Kyoto [4] = assay: solubility change mitosis vs G1/S (difference of NP-40 vs SDS log2 ratios) (log2 ratio difference); higher = more soluble in mitosis
[5] = cell cycle stage: early G1 (4.5 h after nocodazole release)
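Throughout, for melting temperature (median over replicates), in situ: HeLa Kyoto cells synchronized by double thymidine or nocodazole block, proteins quantified by TMT10plex mass spectrometry, three independent biological replicates.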
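Throughout, for solubility change mitosis vs G1/S (difference of NP-40 vs SDS log2 ratios): synchronized HeLa Kyoto cells (double thymidine block for G1/S, nocodazole release for mitosis), protein amounts in NP-40 versus SDS lysates quantified by mass spectrometry, three biological replicates.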
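Throughout, for solubility in G1/S (NP-40 vs SDS abundance): HeLa Kyoto cells arrested at G1/S by double thymidine block, proteins quantified by TMT10plex mass spectrometry in mild NP-40 versus SDS extracts, three biological replicates.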
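Throughout, for thermal stability score vs G1/S (z-score of summed log2 fold changes over temperatures): synchronized HeLa Kyoto cells, proteins quantified by TMT10plex mass spectrometry, three biological replicates, mitosis taken 0.5 h after nocodazole release, G1/S directly after double thymidine block.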

| Sequence | melting temperature (HeLa Kyoto [1]; cell cycle stage: G1/S) [°C] | melting temperature (HeLa Kyoto [1]; cell cycle stage: mitosis) [°C] | solubility in G1/S (log2) (HeLa Kyoto [2]) | thermal stability score (HeLa Kyoto [3]; [5]) | thermal stability score (HeLa Kyoto [3]; cell cycle stage: mitosis) | solubility change mitosis (log2) (HeLa Kyoto [4]) |
| --- | --- | --- | --- | --- | --- | --- |
| MANEEDDPVVQEIDVYLAKSLAEKLYLFQYPVRPASMTYDDIPHLSAKIKPKQQKVELEMAIDTLNPNYCRSKGEQIALNVDGACADETSTYSSKLMDKQTFCSSQTTSNTSRYAAALYRQGELHLTPLHGILQLRPSFSYLDKADAKHREREAANEAGDSSQDEAEDDVKQITVRFSRPESEQARQRRVQSYEFLQKKHAEEPWVHLHYYGLRDSRSEHERQYLLCPGSSGVENTELVKSPSEYLMMLMPPSQEEEKDKPVAPSNVLSMAQLRTLPLADQIKILMKNVKVMPFANLMSLLGPSIDSVAVLRGIQKVAMLVQGNWVVKSDILYPKDSSSPHSGVPAEVLCRGRDFVMWKFTQSRWVVRKEVATVTKLCAEDVKDFLEHMAVVRINKGWEFILPYDGEFIKKHPDVVQRQHMLWTGIQAKLEKVYNLVKETMPKKPDAQSGPAGLVCGDQRIQVAKTKAQQNHALLERELQRRKEQLRVPAVPPGVRIKEEPVSEEGEEDEEQEAEEEPMDTSPSGLHSKLANGLPLGRAAGTDSFNGHPPQGCASTPVARELKAFVEATFQRQFVLTLSELKRLFNLHLASLPPGHTLFSGISDRMLQDTVLAAGCKQILVPFPPQTAASPDEQKVFALWESGDMSDQHRQVLLEIFSKNYRVRRNMIQSRLTQECGEDLSKQEVDKVLKDCCVSYGGMWYLKGTVQS [POLR3E] | 49.8 | 49.9 | 0.128 | 0.337 | 0.588 | -0.0491 |
| MANSGCKDVTGPDEESFLYFAYGSNLLTERIHLRNPSAAFFCVARLQDFKLDFGNSQGKTSQTWHGGIATIFQSPGDEVWGVVWKMNKSNLNSLDEQEGVKSGMYVVIEVKVATQEGKEITCRSYLMTNYESAPPSPQYKKIICMGAKENGLPLEYQEKLKAIEPNDYTGKVSEEIEDIIKKGETQTL [GGCT] | 55.4 | 55.3 | 0.302 | -0.47 | -3.22 | -0.0992 |
| MANVGLQFQASAGDSDPQSRPLLLLGQLHHLHRVPWSHVRGKLQPRVTEELWQAALSTLNPNPTDSCPLYLNYATVAALPCRVSRHNSPSAAHFITRLVRTCLPPGAHRCIVMVCEQPEVFASACALARAFPLFTHRSGASRRLEKKTVTVEFFLVGQDNGPVEVSTLQCLANATDGVRLAARIVDTPCNEMNTDTFLEEINKVGKELGIIPTIIRDEELKTRGFGGIYGVGKAALHPPALAVLSHTPDGATQTIAWVGKGIVYDTGGLSIKGKTTMPGMKRDCGGAAAVLGAFRAAIKQGFKDNLHAVFCLAENSVGPNATRPDDIHLLYSGKTVEINNTDAEGRLVLADGVSYACKDLGADIILDMATLTGAQGIATGKYHAAVLTNSAEWEAACVKAGRKCGDLVHPLVYCPELHFSEFTSAVADMKNSVADRDNSPSSCAGLFIASHIGFDWPGVWVHLDIAAPVHAGERATGFGVALLLALFGRASEDPLLNLVSPLGCEVDVEEGDLGRDSKRRRLV [NPEPL1] | 58.3 | 58.8 | 0.106 | -4.2 | -3.53 | -0.0373 |
| MAPGQLALFSVSDKTGLVEFARNLTALGLNLVASGGTAKALRDAGLAVRDVSELTGFPEMLGGRVKTLHPAVHAGILARNIPEDNADMARLDFNLIRVVACNLYPFVKTVASPGVTVEEAVEQIDIGGVTLLRAAAKNHARVTVVCEPEDYVVVSTEMQSSESKDTSLETRRQLALKAFTHTAQYDEAISDYFRKQYSKGVSQMPLRYGMNPHQTPAQLYTLQPKLPITVLNGAPGFINLCDALNAWQLVKELKEALGIPAAASFKHVSPAGAAVGIPLSEDEAKVCMVYDLYKTLTPISAAYARARGADRMSSFGDFVALSDVCDVPTAKIISREVSDGIIAPGYEEEALTILSKKKNGNYCVLQMDQSYKPDENEVRTLFGLHLSQKRNNGVVDKSLFSNVVTKNKDLPESALRDLIVATIAVKYTQSNSVCYAKNGQVIGIGAGQQSRIHCTRLAGDKANYWWLRHHPQVLSMKFKTGVKRAEISNAIDQYVTGTIGEDEDLIKWKALFEEVPELLTEAEKKEWVEKLTEVSISSDAFFPFRDNVDRAKRSGVAYIAAPSGSAADKVVIEACDELGIILAHTNLRLFHH [ATIC] | 54.4 | 54.4 | 0.0708 | -0.0275 | 1.16 | -0.093 |
| MAPGVARGPTPYWRLRLGGAALLLLLIPVAAAQEPPGAACSQNTNKTCEECLKNVSCLWCNTNKACLDYPVTSVLPPASLCKLSSARWGVCWVNFEALIITMSVVGGTLLLGIAICCCCCCRRKRSRKPDRSEEKAMREREERRIRQEERRAEMKTRHDEIRKKYGLFKEENPYARFENN [PTTG1IP] | 56.3 | – | -0.362 | -5.97 | -6.48 | -0.143 |
| MAPKGSSKQQSEEDLLLQDFSRNLSAKSSALFFGNAFIVSAIPIWLYWRIWHMDLIQSAVLYSVMTLVSTYLVAFAYKNVKFVLKHKVAQKREDAVSKEVTRKLSEADNRKMSRKEKDERILWKKNEVADYEATTFSIFYNNTLFLVVVIVASFFILKNFNPTVNYILSISASSGLIALLSTGSK [SSR3] | 57.8 | 57.2 | -0.131 | 1.59 | -0.0489 | 0.126 |
